The subject of this data set is MS2 coat protein. In words: apparent KD of MS2 coat protein; designed switch direction (-1 OFF switch, 1 ON switch): -1; higher = weaker reporter binding. In short, it runs like this:
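Three titration conditions were used: no input, 200 uM small-molecule ligand, and an oligonucleotide input. In each, SNAP-549-labelled MS2 coat protein was raised from 0.7 or 1.5 nM, doubling, to 3 µM over designed RNA switches transcribed on Illumina chips by stalled E. coli RNA polymerase. Curve fits of normalised cluster fluorescence gave values whose per-design median over clusters is the apparent KD.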

[1] abbreviates: Eterna round: R95, input ligand: microRNA oligo, concentration not stated.
[2] abbreviates: input ligand: microRNA oligo, concentration not stated.
Where [3] appears, read: Eterna round: R95, input ligand: FMN 200 uM.
Where [4] appears, read: Eterna round: R95, input ligand: none.

“UCGCUGCGAGGAUAUACAUGAGGAUCACCCAUGUACGGGUCCGGGUUUUCGUCCAUUAGUAGAAGGCGCAGUGA [JL Laongeedie mod 1] (puzzle: Exclusion 3)”: the “apparent KD of MS2 coat protein” value under setting [1] is 0.136 µM.
In the case of “GGGUGCAGGCUGAGAUCCUACAUGAGGAUCACCCAUGUGGUCCGGUGACGUGAGUCACCGGACUUAGCUCGUCUUGU [salish99_S_TOV1_R5_007] (Eterna round: R97, puzzle: Sensor, turn-off variant 1)”, the “apparent KD of MS2 coat protein” value came to 0.162 µM (input ligand: FMN 200 uM) and 0.192 µM (input ligand: none).
“AACAGGUCAGGAUAUACAUGAGGAUCACCCAUGUAGACUUCUGGUCUACCUUGACCGUGUAGAAGGGACCUGAA [Exclusion 3 (MOD2 of #98 Marzena11)] (Eterna round: R97, puzzle: Exclusion 3)”: the “apparent KD of MS2 coat protein” value reads like this: (input ligand: FMN 200 uM) 0.0439 µM; (input ligand: none) 0.0288 µM.
For “GUUUACAAGCUAAGAUCCUACAUGAGGAUCACCCAUGUGGUCCGGUGACGUGAGUCACCGGACUUAGCUCGUCUUGG [salish99_S_TOV1_R5_090] (Eterna round: R97, puzzle: Sensor, turn-off variant 1)”, the “apparent KD of MS2 coat protein” value runs as follows: (input ligand: FMN 200 uM) 0.066 µM; (input ligand: none) 0.0667 µM.
On to “UACAUGAGGAUCACCCAUGUUUUGUCGUGUAUGGUAUUUAUCUAGGAUAUCAAUUUAGUUAGUUAUGAGAAGGAGAAUAUUAAU [JMF's solution 76] (Eterna round: R96, puzzle: Exclusion NG 3)”, for which the “apparent KD of MS2 coat protein” value runs as follows: (input ligand: FMN 200 uM) 0.048 µM; under setting [2], 0.0211 µM; (input ligand: none) 0.0438 µM.
Take “GGUAAGCUAGGAUAUGCUUUGGGAAAGCAUUCCUUCGAUAAACUUGAGGAUCACCCAAGUAGAAGGAGCUUCCC [salish99_ex2_r4_017] (Eterna round: R97, puzzle: Exclusion 2)”: the “apparent KD of MS2 coat protein” value by setting is: (input ligand: FMN 200 uM) 0.0112 µM; (input ligand: none) 0.011 µM.
For “AAUCAGUGUGUGAGGAUAUUGGUGGAAUGACUUAUUAAGAAGGCACAUGAGGAUCACCCAUGUGGGAAGUCACG [JR_BMEx4_Sub016] (Eterna round: R97, puzzle: Brourd's mod of Exclusion 4)”, in that order: 0.0116 µM and 0.0128 µM.
For the sequence “ACAUGAGGAUCACCCAUGUCUGGCUGGUCUGCUCCGGCUGUUGAGGAUAUAGUCCGGUGUUCGCGCUAGAAGGCGAGGGCUGGA [Aenatbe mod 42] (Eterna round: R96, puzzle: Exclusion NG 3)”, the “apparent KD of MS2 coat protein” value stood at 0.0425 µM (input ligand: FMN 200 uM), 0.0219 µM under setting [2] and 0.0484 µM (input ligand: none).
For “AAUAACAGAGGAUAUACUGUUUUAUGUGUUUAUUGUUUUGAACAUGAGGAUCACCCAUGUAGAAGGCUGAAUGA [JMF 66] (puzzle: Exclusion 2)”, the “apparent KD of MS2 coat protein” value under setting [1] turned out to be 0.023 µM.
As to “AAGUCGACGGUGAGGAUAUAGGUUGAACGACAGAUCUAGAAGGUACAUGAGGAUCACCCAUGUGGGUAACGUCG [Brourd's EX4 #36] (Eterna round: R97, puzzle: Brourd's mod of Exclusion 4)”, the “apparent KD of MS2 coat protein” value amounted to 0.0548 µM (input ligand: FMN 200 uM) and 0.0982 µM (input ligand: none).
With “UAUUUACGAGGAUAUCGUUUUUUUCACAUGAGGAUCACCCAUGUUGUUUAUGUUGCGUUGCGAGAAGGCGUUUGUU [JR_E5_Sub062] (puzzle: Exclusion 5)”, the “apparent KD of MS2 coat protein” value under setting [1] stood at 0.0266 µM.
Turning to “CUGCUGGAGCUUCGCUUUGGUCGUACAUGAGGAUCACCCAUGUAGGAUAUGGUAAAAUUCGCCUGCUAGAAGGAUAGAGUGGUC [salish99_ExNG3_r04_619] (Eterna round: R96, puzzle: Exclusion NG 3)”, under setting [2], the “apparent KD of MS2 coat protein” value worked out at 0.0801 µM.
As to “UGCCGUUGAGGAUAUACGUAGAAAUAGAUUCAUGUAAAACUACAUGAGGAUCACCCAUGUAGAAGGCAAUGGCU [Mat - Exclusion 2 - JL Mod - D47] (Eterna round: R97, puzzle: Exclusion 2)”, the “apparent KD of MS2 coat protein” value came out at 0.221 µM (input ligand: FMN 200 uM) and 0.0244 µM (input ligand: none).
In the case of “AGUACUAACACGAAAGUGUUAGUACAACAAGCUUGUGAAACAUGAGGAUCACCCAUGUCCUCAUAAGCUCGUCUUAU [salish99_TOv2_r3_042] (puzzle: Sensor v3, turn-off variant 2)”, the “apparent KD of MS2 coat protein” value under setting [3] was found to be 0.0137 µM, the “apparent KD of MS2 coat protein” value under setting [1] turned out to be 0.463 µM and the “apparent KD of MS2 coat protein” value under setting [4] came out at 0.0119 µM.
In the case of “CGAUGAGGAGUGAGGAUAUCGUGUUCGAAAGAACGUGAGAAGGCACAUGAGGAUCACCCAUGUGAUUCUUAUCG [Omei Ex4B A19] (Eterna round: R97, puzzle: Brourd's mod of Exclusion 4)”, the “apparent KD of MS2 coat protein” value reads like this: (input ligand: FMN 200 uM) 0.077 µM; (input ligand: none) 0.0255 µM.
For “CUCUUGAGUCAGGAUAUCGAGAGGCUAAUAAAACGAGAAGGGACUACAUGAGGAUCACCCAUGUGAUCGCAAAA [Geonge] (Eterna round: R97, puzzle: Exclusion 6)”, in that order: 0.433 µM and 0.0617 µM.
For the sequence “CGAAUUAUAGGAUAUACAUGAGGAUCACCCAUGUAACCGUGACUGGGAUGCGUCUCAAGUAGAAGGAUAGGCGC [Eternabot (L1) Solution 9] (Eterna round: R97, puzzle: Exclusion 3)”, the “apparent KD of MS2 coat protein” value (input ligand: FMN 200 uM) worked out at 0.0272 µM and the “apparent KD of MS2 coat protein” value (input ligand: none) was 0.0143 µM.
As to “GUGGUACAUGAGGAUCACCCAUGUUAGGAUAUCGCGUGAGGUUUUACUUCCGCACACACGAGAAGGGACGUCUU (puzzle: Exclusion 1)”, the “apparent KD of MS2 coat protein” value under setting [1] came to 0.0277 µM.
Still for that read-out and setting: as for “CCAAGCUGUGUGAGGAUAUGCUGAACCUUGGUUCAGCAGAAGGCACAUGAGGAUCACCCAUGUGAAGAGCUUGG [Mat - Exclusion 4 - JL Mod - D96] (puzzle: Brourd's mod of Exclusion 4)”, the figure is 0.0166 µM.
Take “ACAUGAGGAUCACCCAUGUGCACGUAAUGGCUCAUGUAGAGUGAGGAUAUGUGUGACGAACGAGCACAGAAGGCACAAGACUGG [Deportation 13 - Jieux - Exclusion NG 3] (Eterna round: R96, puzzle: Exclusion NG 3)”: the “apparent KD of MS2 coat protein” value by setting is: (input ligand: FMN 200 uM) 0.116 µM; under setting [2], 0.0673 µM; (input ligand: none) 0.0974 µM.
As for “ACAUGUAAUGCAGGAUAUGGGACACAUGAGGAUCACCCAUGUGACCAUAUGUAAUGCUAAGAGUCUCAGAAGGGUAUGUACAUG [Ex NG2 #46] (Eterna round: R96, puzzle: Exclusion NG 2)”, the “apparent KD of MS2 coat protein” value by setting is: (input ligand: FMN 200 uM) 0.0152 µM; under setting [2], 0.00756 µM; (input ligand: none) 0.0129 µM.
In the case of “UAGAUGGGAGGAUAUGCGUAGAUACGGAUUCGUGUAGUGCUACAUGAGGAUCACCCAUGUAGAAGGCCCGUCUU [JL-ex2-2.28 Mayanne mod] (puzzle: Exclusion 2)”, the “apparent KD of MS2 coat protein” value under setting [1] was 0.0139 µM.
On the same count and under the same terms, to “UAGAUGGGAGGAUAUGCAUAGAUACAGAUUCGUGUAGUGCUACAUGAGGAUCACCCAUGUAGAAGGCCCGUCUU [JL-ex2-2.22 Mayanne mod] (puzzle: Exclusion 2)” belongs 0.0142 µM.
For “UCAUACGUUGAGGAUAUGUCAGUUAGUAUAUUUACAGAAGGCGAUACAUGAGGAUCACCCAUGUUUAUGGGCAU [Ex-6 Malc#4] (puzzle: Exclusion 6)”, under setting [1], the “apparent KD of MS2 coat protein” value came to 0.225 µM.
As to “GUUAACGAAGAGGAUAUAUGAUAUCAAAGCUUCAUAGAAGGCUUCACAUGAGGAUCACCCAUGUGAUCUUCUUU [jl-ex6-4.09 ViennaUCT mod] (Eterna round: R97, puzzle: Exclusion 6)”, the “apparent KD of MS2 coat protein” value reads like this: (input ligand: FMN 200 uM) 0.0442 µM; (input ligand: none) 0.0151 µM.
The like results for “UUGUAACAUGAGGAUCACCCAUGUGAGGAUAUGGUUAAGUAAUGUAAUGUAAAGUAAUCCAGAAGGCACAUGUU [1st #24] (Eterna round: R97, puzzle: Exclusion 1)” were, in that order, 0.488 µM and 0.328 µM.
As to “CAUGGGUGUGAGCCGCAUUACAUGAGGAUCACCCAUGUCAACAAGCUUUUUGCUUGUCUUACGCGGCGGCACCAAAA [Bimaus] (puzzle: Sensor v3, turn-off variant 1)”, the “apparent KD of MS2 coat protein” value runs as follows: under setting [3], 0.0174 µM; under setting [1], 0.00965 µM; under setting [4], 0.0149 µM.
Take “UUUUACAAGCUAAGAUCCUACAUGAGGAUCACCCAUGUGGUCCGGUGACGUGAGUCACCGGACUUAGCUCGUCUUGU [JL TOV1 3.70] (Eterna round: R97, puzzle: Sensor, turn-off variant 1)”: the “apparent KD of MS2 coat protein” value (input ligand: FMN 200 uM) stood at 0.0803 µM and the “apparent KD of MS2 coat protein” value (input ligand: none) was determined as 0.0882 µM.
As to “UUAGGCUGAAGAUCAAUUAAUUAACAUGAGGAUCACCCAUGUAAGGAUAUCAGCUCGAUUAGAGCUGAGAAGGUACAUGCAGCC [ExNG3/18-A1] (Eterna round: R96, puzzle: Exclusion NG 3)”, under setting [2], the “apparent KD of MS2 coat protein” value was 0.102 µM.
As to “AGAAAUGCCCAUGGCCACAAGCUUCUUGCUUGUCUUACUACAUGAGGAUCACCCAUGUAACAUGGGCUCCUGAUAAU [Maonesra] (puzzle: Sensor v3, turn-off variant 2)”, the “apparent KD of MS2 coat protein” value under setting [3] turned out to be 0.0118 µM, the “apparent KD of MS2 coat protein” value under setting [1] was determined as 0.0101 µM and the “apparent KD of MS2 coat protein” value under setting [4] amounted to 0.0111 µM.
As to “CUGAGCUGAGGAUAUACAUGAGGAUCACCCAUGUGAAGUAGCUUGCGUACAGGCAGAUGUAGAAGGCAGUUCGG [Mod of JL 1 - Jieux - Exclusion 3] (Eterna round: R97, puzzle: Exclusion 3)”, the “apparent KD of MS2 coat protein” value (input ligand: FMN 200 uM) is 0.25 µM and the “apparent KD of MS2 coat protein” value (input ligand: none) is 0.0421 µM.
Regarding “GUUAGUUAAGGAUAUACAGGGAGCUGCGGCGUCUCGCCGCAACAUGAGGAUCACCCAUGUAGAAGGUAGCCGUU [JL ViennaUCT Enbibi mod 8] (puzzle: Exclusion 2)”, the “apparent KD of MS2 coat protein” value under setting [1] was found to be 0.0532 µM.

(Values after the supplement of paper PMC9170038.)
